Reference: publication PMC12724345

Legend:
[1] = target: Arabidopsis SCE1 fused to CLuc (split-luciferase assay) (UniProt Q42551); assay: split-luciferase complementation assay in planta; details: Rep^sim NLuc + CLuc SCE1; n = 12; parent: est. 0.36; read off a plot
[2] = target: Arabidopsis SUMO1^ΔGG fused to CLuc (split-luciferase assay) (UniProt P55852); assay: split-luciferase complementation assay in planta; details: Rep^sim NLuc + CLuc SUMO1^ΔGG; n = 12; parent: est. 0.29; read off a plot
Chain of UniProt P55852 (P55852 1-91, stated change not applied): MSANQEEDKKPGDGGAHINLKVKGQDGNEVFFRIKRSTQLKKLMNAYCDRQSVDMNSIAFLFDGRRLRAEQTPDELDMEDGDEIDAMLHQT

Chain of UniProt Q42551 (Q42551 whole entry, the tested form may be a part): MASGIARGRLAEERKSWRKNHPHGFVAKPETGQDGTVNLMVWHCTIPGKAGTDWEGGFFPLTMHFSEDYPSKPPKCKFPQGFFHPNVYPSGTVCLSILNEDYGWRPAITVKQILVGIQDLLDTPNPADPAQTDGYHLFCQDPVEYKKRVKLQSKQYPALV

Substance: Rep of TYLCV fused to NLuc (split-luciferase assay) I215A; V216A; I217A
- response (fraction of total signal) [1]: 0.075
- response (fraction of total signal) [2]: 0.08
